{
  "source": "paper PMC3282181",
  "key": {"wtTIA-RRM123 [1]": {"molecular_target": "T1, wtTIA-RRM123 (Homo sapiens, UniProt P31483-2 1-274)", "T1 sequence": "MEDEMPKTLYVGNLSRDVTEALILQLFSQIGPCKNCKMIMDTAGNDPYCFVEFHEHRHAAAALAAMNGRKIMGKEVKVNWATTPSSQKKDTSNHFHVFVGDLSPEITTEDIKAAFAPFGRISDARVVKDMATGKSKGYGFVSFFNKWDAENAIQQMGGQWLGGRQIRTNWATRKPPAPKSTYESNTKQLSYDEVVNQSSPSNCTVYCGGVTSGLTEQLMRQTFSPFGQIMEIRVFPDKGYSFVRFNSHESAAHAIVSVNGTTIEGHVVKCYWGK", "assay": "ITC"}, "wtTIA-RRM123 [2]": {"molecular_target": "T1, wtTIA-RRM123", "assay": "ITC", "remark": "listed apart in the source"}, "TIA-Mut3 [3]": {"molecular_target": "T2, TIA-Mut3 (Homo sapiens, UniProt P31483-2 1-274, Y206A;F242A)", "T2 sequence": "T1 sequence with Y206A, F242A", "assay": "ITC"}, "wtTIA-RRM123 [4]": {"molecular_target": "T1, wtTIA-RRM123", "assay": "ITC", "remark": "listed apart in the source"}, "TIA-Mut3 [5]": {"molecular_target": "T2, TIA-Mut3", "assay": "ITC", "remark": "listed apart in the source"}, "wtTIA-RRM123 [6]": {"molecular_target": "T1, wtTIA-RRM123", "assay": "EMSA"}},
  "note": "Residue numbers refer to the chain shown, from its start. Like-named read-outs stand apart in the source and are kept apart here.",
  "data": [
    {"binder": "UUUUUUUUUUUUUUUUUUUU (ssRNA)", "note": "[U20 RNA]", "values": [
      {"measurement": "Kd", "setting": "wtTIA-RRM123 [1]", "result": "240 ± 10", "unit": "nM"},
      {"measurement": "Kd", "setting": "wtTIA-RRM123 [2]", "result": "0.5 ± 0.1", "unit": "nM"},
      {"measurement": "Kd", "setting": "TIA-Mut3 [3]", "result": "1270 ± 60", "unit": "nM"},
      {"measurement": "Kd", "setting": "wtTIA-RRM123 [4]", "result": "620 ± 70", "unit": "nM"},
      {"measurement": "Kd", "setting": "TIA-Mut3 [5]", "result": "14.4 ± 6.1", "unit": "nM"}
    ]},
    {"binder": "UUAUUUAUUUA (ssRNA)", "note": "[tnf-a ARE RNA (11 nt)]", "values": [
      {"measurement": "binding result", "setting": "wtTIA-RRM123 [6]", "result": "binds"}
    ]}
  ]
}
